In general, Kd refers to the free concentration of one partner at which half of the binding sites on the other are occupied at equilibrium, for simple one-to-one binding.

We go through two molecules from publication PMC7911018 (2021).

The target of this assay is HER2 ectodomain-Fc (96 kDa) (human, UniProt P04626 23-652). Description: SPR. (Surface plasmon resonance follows binding to a sensor surface in real time, without labels.)

B1: A10C (A10 CDRs grafted into the C8WT scaffold) (VHH)
VHH: DVQLQASGGGLAQPGGSLRLSCAASCDRMYWVRQAPGKGLEWVSSCDRYYADSVKGRFTISRDNAKNTLYLQMNSLKLEDTALYFCACDRGQGTQVTVSS
Regarding B1, binding was put at a Kd of 40.5 nM.

B2: VHH A10 (anti-HER2 nanobody) (VHH)
VHH: DVQLQASGGGFVQPGGSLRLSCAASGATSNISNMGWFRQAPGKEREFVSAISRAESRPLYYADSVKGRFTISRDNSKNTVYLQMNSLRAEDTATYYCAYMPLVRHKAYWGQGTQVTVSS
Regarding B2, the Kd came out at 8.1 nM.
